Data taken from the supplement of paper PMC7877785.
± gives the uncertainty stated by the source.

Assay: self-splicing fitness, log relative to wild type (ln ratio); higher = more splicing; Tetrahymena group I intron in knt gene, E. coli kanamycin selection, DiMSum; sequences stand for … in CUCUCU…GGAGGGAAAAGUUAUCAGGCAUGCACCUGGUAGCUAGUCUUUAAACCAAUAGAUUGCAUCGGUUUAAAAGGCAAGACCGUCAAAUUGCGGGAAAGGGGUCAACAGCCGUUCAGUACCAAGUCUCAGGGGAAACUUUGAGAUGGCCUUGCAAAGGGUAUGGUAAUAAGCUGACGGACAUGGUCCUAACCACGCAGCCAAGUCCUAAGUCAACAGAUCUUCUGUUGAUAUGGAUGCAGUUCACAGACUAAAUGUCGGUCGGGGAAGAUGUAUUCUUCUCAUAAGAUAUAGUCGGACCUCUCCUUAAUGGGAGCUAGCGGAUGAAGUGAUGCAACACUGGAGCCGCUGGGAACUAAUUUGUAUGCGAAAGUAUAUUGAUUAGUUUUGGAGUACUCGUGGUCG
Summary of the method: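 A randomised library covering all eight P1ex-region intron nucleotides was built with the intron in the knt kanamycin-resistance gene on pET-22b(+) and held in E. coli BL21(DE3). Cells were grown overnight at 37°C or 30°C on LB agar, with or without 25 μg/mL kanamycin, plus 100 μg/mL carbenicillin, 50 μM IPTG and 0.2% rhamnose, and pooled colonies were amplicon-sequenced on an Illumina HiSeq 2500. DiMSum fitness is the error-weighted combination of wild-type-normalised replicate fold changes, kanamycin versus none.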

Sequence	self-splicing fitness (ln) (30 °C)	self-splicing fitness (ln) (37 °C)
UGUGAGCAAUAUUACGAUAU	-2.31 ± 0.22	-1.66 ± 0.37
UGUGAGCAAUAUUACGAUGA	-2.75 ± 0.17	-2.21 ± 0.17
UGUGAGCAAUAUUACGAUUA	-1.17 ± 0.22	-1.53 ± 0.2
UGUGAGCAAUAUUACGCAGU		-1.74 ± 0.26
UGUGAGCAAUAUUACGCCGU		-1.71 ± 0.47
UGUGAGCAAUAUUACGCGCA	-1.34 ± 0.44	-0.203 ± 0.48
UGUGAGCAAUAUUACGCGGU	-3.67 ± 0.37	-0.807 ± 0.33
UGUGAGCAAUAUUACGCUUC	-2.97 ± 0.39	
UGUGAGCAAUAUUACGGACG	-0.792 ± 0.12	-0.0879 ± 0.18
UGUGAGCAAUAUUACGGUAU	-3.87 ± 0.34	
UGUGAGCAAUAUUACGUAAC	-3.16 ± 0.28	-2.25 ± 0.38
UGUGAGCAAUAUUACGUAUA	-3.5 ± 0.4	-2.03 ± 0.21
UGUGAGCAAUAUUACGUCCG	-0.363 ± 0.12	-0.0626 ± 0.17
UGUUAGCAAUAUUACGAAUA	-1.32 ± 0.14	-0.0107 ± 0.14
UGUUAGCAAUAUUACGACCA	0.586 ± 0.18	-0.351 ± 0.24
UGUUAGCAAUAUUACGAGAC	-3.17 ± 0.37	
UGUUAGCAAUAUUACGAGAU		-2.58 ± 0.44
UGUUAGCAAUAUUACGAGCA	-0.725 ± 0.12	-0.136 ± 0.17
UGUUAGCAAUAUUACGAGGU	-3.93 ± 0.28	-2.8 ± 0.33
UGUUAGCAAUAUUACGCAAC	-2.82 ± 0.44	
UGUUAGCAAUAUUACGCAGC		-2.47 ± 0.38
UGUUAGCAAUAUUACGCCCA	0.342 ± 0.28	-0.34 ± 0.41
UGUUAGCAAUAUUACGCCUC		-0.642 ± 0.41
UGUUAGCAAUAUUACGCGAA	-0.983 ± 0.12	-0.191 ± 0.1
UGUUAGCAAUAUUACGGCAG	0.45 ± 0.1	-1.03 ± 0.12
UGUUAGCAAUAUUACGGCUA	-1.01 ± 0.19	0.14 ± 0.19
UGUUAGCAAUAUUACGGCUG	0.0825 ± 0.08	0.196 ± 0.12

Sequence	self-splicing fitness (ln) (30 °C)	self-splicing fitness (ln) (37 °C)
UGUUAGCAAUAUUACGGGAC		-2.99 ± 0.48
UGUUAGCAAUAUUACGGUAC		-2.68 ± 0.48
UGUUAGCAAUAUUACGUCGU	-3.5 ± 0.33	-2.69 ± 0.23
UGUUAGCAAUAUUACGUUAC	-1.97 ± 0.43	
UUAAAGCAAUAUUACGAAUU	-1.97 ± 0.11	-2.46 ± 0.21
UUAAAGCAAUAUUACGAGUU	-2.82 ± 0.18	-1.38 ± 0.16
UUAAAGCAAUAUUACGAUCG	0.538 ± 0.098	0.338 ± 0.13
UUAAAGCAAUAUUACGAUGC	-2.82 ± 0.11	-2.2 ± 0.083
UUAAAGCAAUAUUACGCAGC		-2.68 ± 0.47
UUAAAGCAAUAUUACGCGAG	-0.116 ± 0.071	0.3 ± 0.085
UUAAAGCAAUAUUACGCGCC	-0.43 ± 0.15	-0.00103 ± 0.24
UUAAAGCAAUAUUACGCGGC	-2.74 ± 0.29	-1.03 ± 0.2
UUAAAGCAAUAUUACGCGUG	-0.256 ± 0.056	-0.26 ± 0.068
UUAAAGCAAUAUUACGGACG	0.179 ± 0.079	0.835 ± 0.14
UUAAAGCAAUAUUACGGCGG	0.463 ± 0.11	0.0127 ± 0.13
UUAAAGCAAUAUUACGGGAG	-1.34 ± 0.08	-0.293 ± 0.12
UUAAAGCAAUAUUACGUAGU	-3.87 ± 0.21	-1.9 ± 0.18
UUAAAGCAAUAUUACGUGGA	-2.45 ± 0.072	-0.864 ± 0.073
UUAAAGCAAUAUUACGUUAU	-2.14 ± 0.092	-1.23 ± 0.11
UUAAAGCAAUAUUACGUUCC	-2.36 ± 0.22	-0.947 ± 0.21
UUAAAGCAAUAUUACGUUGA	-0.721 ± 0.066	-0.0751 ± 0.094
UUACAGCAAUAUUACGAAAU	-3.69 ± 0.34	-2.59 ± 0.33
UUACAGCAAUAUUACGAACA	-0.742 ± 0.11	-1.07 ± 0.12
UUACAGCAAUAUUACGACAG	-1.02 ± 0.068	-0.222 ± 0.083
UUACAGCAAUAUUACGAGAC	-3.02 ± 0.27	-2.18 ± 0.34
UUACAGCAAUAUUACGAGGG	-3.1 ± 0.25	-1.62 ± 0.21
UUACAGCAAUAUUACGAGGU	-3.08 ± 0.22	-2.72 ± 0.23

Sequence	self-splicing fitness (ln) (30 °C)	self-splicing fitness (ln) (37 °C)
UUACAGCAAUAUUACGAUAG	-0.427 ± 0.056	0.204 ± 0.07
UUACAGCAAUAUUACGAUCC	-3.16 ± 0.13	-2.28 ± 0.16
UUACAGCAAUAUUACGCGCG	-0.121 ± 0.099	0.0717 ± 0.1
UUACAGCAAUAUUACGCUAG	-0.779 ± 0.11	-0.391 ± 0.11
UUACAGCAAUAUUACGGGGG	-2.2 ± 0.14	-1.77 ± 0.15
UUACAGCAAUAUUACGGUCA	-0.595 ± 0.075	-0.209 ± 0.088
UUACAGCAAUAUUACGGUGA	-1.03 ± 0.099	-0.122 ± 0.14
UUACAGCAAUAUUACGUCAA	-1.14 ± 0.082	-0.187 ± 0.081
UUACAGCAAUAUUACGUCAG	-0.769 ± 0.067	-0.337 ± 0.09
UUACAGCAAUAUUACGUCCG	-1.53 ± 0.089	-0.482 ± 0.14
UUACAGCAAUAUUACGUCUC	-2.98 ± 0.28	-2.3 ± 0.22
UUACAGCAAUAUUACGUUCG	-0.549 ± 0.061	-0.234 ± 0.091
UUACAGCAAUAUUACGUUUU	-3.4 ± 0.11	-0.802 ± 0.092
UUAGAGCAAUAUUACGAGUA	-3.31 ± 0.29	-2.1 ± 0.19
UUAGAGCAAUAUUACGAUCC	-2.97 ± 0.41	
UUAGAGCAAUAUUACGCACA	-0.745 ± 0.08	-0.314 ± 0.11
UUAGAGCAAUAUUACGCACU	-1.24 ± 0.23	-1.78 ± 0.44
UUAGAGCAAUAUUACGCCAA	-0.503 ± 0.16	-0.0692 ± 0.2
UUAGAGCAAUAUUACGCCGG	-0.922 ± 0.19	0.69 ± 0.36
UUAGAGCAAUAUUACGCGUG	-0.924 ± 0.086	0.00533 ± 0.11
UUAGAGCAAUAUUACGCGUU	-2.85 ± 0.17	-1.62 ± 0.17
UUAGAGCAAUAUUACGCUUA	-0.675 ± 0.099	-0.447 ± 0.12
UUAGAGCAAUAUUACGGACG	-1.73 ± 0.15	-0.509 ± 0.29
UUAGAGCAAUAUUACGGAGA	-0.579 ± 0.13	-0.654 ± 0.23
UUAGAGCAAUAUUACGGAGU	-4.12 ± 0.39	-2.9 ± 0.32
UUAGAGCAAUAUUACGGCGA	0.109 ± 0.063	-0.0898 ± 0.074
